Here are results for six compounds from US20070116673A1, “Method for activating T cell protein phosphatase and therapeutical methods based thereon” (Valtion Teknillinen Tutkimuskeskus, priority 2005, published 2007).

Assay [1] addresses T1, TCPTP (Homo sapiens, UniProt P17706).
T1 sequence (P17706 1-387 isoform P17706-2): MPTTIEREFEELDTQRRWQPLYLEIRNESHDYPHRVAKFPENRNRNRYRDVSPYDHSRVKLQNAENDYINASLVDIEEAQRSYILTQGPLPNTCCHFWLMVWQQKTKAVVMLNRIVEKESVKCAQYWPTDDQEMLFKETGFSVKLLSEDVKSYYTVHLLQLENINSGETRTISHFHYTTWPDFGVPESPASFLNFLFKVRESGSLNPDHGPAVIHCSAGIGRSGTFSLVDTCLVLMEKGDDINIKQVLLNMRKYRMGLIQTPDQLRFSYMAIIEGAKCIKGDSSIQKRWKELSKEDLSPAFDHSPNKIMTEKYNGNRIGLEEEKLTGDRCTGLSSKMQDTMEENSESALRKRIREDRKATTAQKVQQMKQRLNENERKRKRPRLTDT
Description: Phosphatase assay with recombinant, purified TCPTP (diFMUP substrate). In kind it is biochemical. Also noted: For phosphatase assays with purified protein, full length TCPTP was incubated in phosphatase reaction buffer; GST (N); made in house; host or cells: E. coli BL21 pLysS. The settings on record: FIG. 2B; for activation of TCPTP by small molecule compounds: preincubated with 0.2 μg/ml TCPTP 10 minutes RT, different concentrations. The procedure:
Serum starved Hela cells were either left untreated on plastic, stimulated with 10% FBS for 30 min or detached and replated on collagen type I or poly-L-lysine (10 μg/ml, Sigma) coated tissue-culture plates for 1 h. When indicated cells were surface biotinylated as described^12. Cells were either lysed in Laemmli sample buffer and fractionated on SDS-PAGE for western blotting or lysed in lysis buffer and equal amounts of protein from each sample were precleared with protein G-Sepharose and subjected to immunoprecipitation. Antibodies (anti-TCPTP, Oncogene; anti-a1, anti-a5, anti-a6, all from Chemicon; anti-SHP-2, Santa Cruz) were incubated with protein G-Sepharose and immunoprecipitation was performed at 4° C. for 2 h. The immunoprecipitates were washed three times with cell lysis buffer. For co-precipitation assays, proteins were resolved on SDS-PAGE followed with western blotting or detection of biotin with Vectastain reagent (Vector). For phosphatase assays, immunoprecipitates were resuspended in phosphatase reaction buffer (25 mM Hepes pH 7.4, 50 mM NaCl, 1 mM DTT) and ⅓ of the reaction was subjected to western blotting and the remaining beads were assayed for phosphatase activity in triplicate using diFMUP (Molecular Probes) as a substrate and in the presence of serine/threonine phosphatase inhibitor cocktail (Sigma) according to manufacturers instructions. When indicate synthetic peptides were preincubated with the immunoprecipitates for 15 min prior to phosphatase assay reaction (α2 peptide […] (SEQ ID NO:6), a kind gift from Dr Heino). For phosphatase assays with purified protein, full length TCPTP was incubated in phosphatase reaction buffer in the presence or absence of TCPTP deletion mutant proteins and synthetic integrin cytoplasmic tail peptides as indicated. […] The phosphatase reaction was allowed to proceed for 10 minutes in RT and stopped with urea followed with measurement of umbelliferone fluorescence according to manufacturers instructions (Molecular Probes). Western blotting was performed with commercial antibodies raised against EGFR, EGFR(PY)845, 992 or 1068 (Cell Signalling Technologies), TCPTP (Oncogene) or tubulin (Santa Cruz Biotechnology). Specific binding of antibodies was detected with peroxidase-conjugated secondary antibodies and visualized by enhanced chemiluminescence detection.

In assay [2] the target is T2, SHP-2 (Homo sapiens, UniProt Q06124).
T2 construct: endogenous in cells; host or cells: HeLa
T2 sequence (Q06124 1-593): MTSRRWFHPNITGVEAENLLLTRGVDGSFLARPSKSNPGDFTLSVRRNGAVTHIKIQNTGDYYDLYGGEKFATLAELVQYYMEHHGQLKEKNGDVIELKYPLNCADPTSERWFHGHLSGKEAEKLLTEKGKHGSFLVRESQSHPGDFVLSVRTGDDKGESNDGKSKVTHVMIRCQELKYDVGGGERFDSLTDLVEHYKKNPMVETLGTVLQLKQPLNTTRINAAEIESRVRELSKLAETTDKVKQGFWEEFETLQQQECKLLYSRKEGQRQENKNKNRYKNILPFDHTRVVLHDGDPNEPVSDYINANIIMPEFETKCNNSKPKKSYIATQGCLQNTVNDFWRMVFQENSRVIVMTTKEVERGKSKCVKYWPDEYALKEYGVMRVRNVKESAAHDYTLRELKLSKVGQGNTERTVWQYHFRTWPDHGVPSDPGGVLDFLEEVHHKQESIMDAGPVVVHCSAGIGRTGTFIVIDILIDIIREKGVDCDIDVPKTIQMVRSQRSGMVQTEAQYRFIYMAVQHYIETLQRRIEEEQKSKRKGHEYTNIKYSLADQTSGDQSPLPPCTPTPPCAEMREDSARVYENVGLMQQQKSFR
In words: Phosphatase assay of immunoprecipitated SHP-2 from HeLa lysates (diFMUP substrate). Type of assay: biochemical. The settings on record: FIG. 2A. The procedure: (§1) Serum starved Hela cells were either left untreated on plastic, stimulated with 10% FBS for 30 min or detached and replated on collagen type I or poly-L-lysine (10 μg/ml, Sigma) coated tissue-culture plates for 1 h. When indicated cells were surface biotinylated as described^12. Cells were either lysed in Laemmli sample buffer and fractionated on SDS-PAGE for western blotting or lysed in lysis buffer and equal amounts of protein from each sample were precleared with protein G-Sepharose and subjected to immunoprecipitation. Antibodies (anti-TCPTP, Oncogene; anti-a1, anti-a5, anti-a6, all from Chemicon; anti-SHP-2, Santa Cruz) were incubated with protein G-Sepharose and immunoprecipitation was performed at 4° C. for 2 h. The immunoprecipitates were washed three times with cell lysis buffer. For co-precipitation assays, proteins were resolved on SDS-PAGE followed with western blotting or detection of biotin with Vectastain reagent (Vector). […] The phosphatase reaction was allowed to proceed for 10 minutes in RT and stopped with urea followed with measurement of umbelliferone fluorescence according to manufacturers instructions (Molecular Probes). […] Specific binding of antibodies was detected with peroxidase-conjugated secondary antibodies and visualized by enhanced chemiluminescence detection.

For assay [3], the target named is T1, TCPTP. In words: Pull-down competition: purified TCPTP with GST-α1cyt fusion protein. Type of assay: binding. On the set-up: purified full-length TCPTP was incubated in the lysis buffer with GST-fusion proteins; GST (N); made in house; host or cells: E. coli BL21 pLysS. To be noted: peptide 1 μg/ml, TCPTP 1 μg; FIG. 1F. The procedure:
α1cyt and a2cyt were subcloned into pGEX4T1 (Amersham Biosciences). Full length TCPTP (45 kD) and its deletion mutants were PCR-amplified from pCG-TC45 plasmid^11 and cloned into pGEX-6P-1. GST-fusion proteins were expressed in E. coli (BL21 pLysS) and purified using manufacturer's instructions (Amersham Biosciences). Fusion proteins were either used immobilized to Glutathione-sepharose, eluted with 25 mM glutathione or GST was cleaved using precision protease according to manufacturers instructions (Amersham Biosciences). For pull-down assays, Hela cells were lysed to lysis buffer (1% octylglycoside, 50 mM Tris-HCl pH 7.5, 150 mM NaCl, 1 mM MgCl2, complete protease inhibitor (Roche)), clarified with centrifugation 10 min 13000 rpm+4 C, precleared with glutathione-sepharose and incubated with immobilized GST-fusion proteins and washed 3 times with 1 ml on the same buffer. Bound proteins were resolved on SDS-PAGE and detected with western blot. Alternatively, purified full-length TCPTP was incubated in the lysis buffer with GST-fusion proteins as indicated in the presence or absence of synthetic integrin α1 cytoplasmic tail peptide (RPLKKKMEKRPLKKKMEK, (SEQ ID NO:5) Genemed Synthesis).

The test system of assay [4] is HeLa cells. In words: Microinjection of fluorescein diphosphate (FDP) and peptide into live HeLa cells, phosphatase activity. In kind it is cell-based, human. To be noted: 1 mg/ml peptide co-injected with 1 mM FDP, 30 min; compared with α2 or PBS; FIG. 4A. As for the experimental part: Cells were plated on acid-washed glass coverslips coated with collagen type I, fibronectin or poly-L-lysine (10 μg/ml) and allowed to adhere for 1 h. Cells were washed in PBS and fixed with 4% paraformaldehyde for 10 min. For antibody staining, cells were permeabilized in PBS/0.1% Triton X-100 and washed with PBS/1% (w/v) BSA for blocking. Cells were stained with antibodies as indicated for 1 h at room temperature. Cells were then washed three times with PBS before detection with Alexa-488 or Alexa-555-conjugated anti-rabbit or anti-mouse antibodies (Molecular Probes). After washing in PBS and water, cells were mounted in Mowiol (100 mM Tris-HCl at pH 8.5, 10% (w/v) Mowiol (Calbiochem, San Diego, Calif.) and 25% (v/v) glycerol containing antifade (2.5% (w/v) 1,4-diazadicyclo-2.2.2-octane (Sigma)). Slides were examined using Zeiss inverted fluorescence microscope or a confocal laser scanning microscope (Axioplan 2 with LSM 510; Carl Zeiss Inc., Jena, Germany) equipped with 63×/1.4 Plan-Apochromat oil immersion objectives. Confocal images represent a single z-section of approximately 1.0 μm. Cytosolic microinjections with 1 mM FDP (Molecular probes) and 1 mg/ml of peptide in PBS were performed on Hela cells cultured on glass-bottom 3 cm plates. Fluorescence images from live cells were taken with identical settings and intensities were quantified using Zeiss Axioplan4 software.

Assay [5] addresses T3, TCPTP (Homo sapiens, UniProt P17706).
T3 construct: endogenous in cells; host or cells: HeLa
T3 sequence (P17706 1-415): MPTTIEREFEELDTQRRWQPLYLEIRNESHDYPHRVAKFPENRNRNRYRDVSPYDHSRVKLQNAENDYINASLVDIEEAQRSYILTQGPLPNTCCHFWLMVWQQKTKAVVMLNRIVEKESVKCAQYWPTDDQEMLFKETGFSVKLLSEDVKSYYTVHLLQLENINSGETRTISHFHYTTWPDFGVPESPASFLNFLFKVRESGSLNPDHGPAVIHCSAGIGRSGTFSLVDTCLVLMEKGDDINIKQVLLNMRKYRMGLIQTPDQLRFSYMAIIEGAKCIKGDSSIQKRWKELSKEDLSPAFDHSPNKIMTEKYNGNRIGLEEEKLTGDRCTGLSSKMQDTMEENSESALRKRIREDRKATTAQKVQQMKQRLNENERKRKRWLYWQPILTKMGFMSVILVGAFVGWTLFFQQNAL
Description: Phosphatase assay of immunoprecipitated TCPTP from HeLa lysates (diFMUP substrate). In kind it is biochemical. To be noted: peptide preincubated with immunoprecipitate 15 min; FIG. 2A. As for the experimental part:
as §1

Counter-ions that a name gives are not always drawn.

In the case of `NCCC1CCCC(CCN)N1` (centres unmarked) [MDL-26,630 trihydrochloride], in assay [1], the “activation of TCPTP by small molecule compounds” value (shortened to “activation of TCPTP”) is “able to activate TCPTP”.

Take `O=C1c2c(O)ccc(O)c2C(=O)c2c(NCCNCCO)ccc(NCCNCCO)c21` [Mitoxantrone]: the “activation of TCPTP” value in assay [1] is “able to activate TCPTP”.

On to `N.N.N.N.N.N.N.N.N.N.N.N.N.N.[Cl-].[Cl-].[Cl-].[Cl-].[Cl-].[Cl-].[O-2].[O-2].[Ru+3].[Ru+3].[Ru+4]` [Ruthenium Red], for which the “activation of TCPTP” value in assay [1] was “able to activate TCPTP”.

For the compound `NCCCCNCCCN` [Spermidine], in assay [1], the “activation of TCPTP” value is listed as “able to activate TCPTP”.

Consider “synthetic α1 tail peptide: synthetic integrin α1 cytoplasmic tail peptide RPLKKKMEKRPLKKKMEK (SEQ ID NO:5), Genemed Synthesis (fusion protein)”, for which the “activation of SHP-2 phosphatase” value in assay [2] is “not activated”. Also, the “activation of recombinant, purified TCPTP by peptide” value in assay [1] (TCPTP 0.15 μg/ml, different peptide concentrations) was “highly activated”. In addition, the “competition with α1cyt for the association with TCPTP” value in assay [3] is reported as “able to compete”. Besides, the “phosphatase activity in live HeLa cells (FDP fluorescence)” value in assay [4] is “induced phosphatase activity”. In addition, in assay [5], the “increase of catalytic activity of immunoprecipitated TCPTP” value is reported as 2.95±0.48 fold.

In the case of “α2 tail peptide: synthetic α2 integrin cytoplasmic tail peptide KLGFFKRKYEKMTKNPDEIDETTELSS (SEQ ID NO:6) (fusion protein)”, the “activation of SHP-2 phosphatase” value in assay [2] is listed as “not activated”. Besides, in assay [5], the “increase of catalytic activity of immunoprecipitated TCPTP” value is “no effect”.
